Assay results published in article doi:10.1101/365775 (bioRxiv, 2018).

Biological target: the molecule itself
Test: SEC

B1: Sec18_(His8) (natural protein, yeast, UniProt P18759 1-758, looked up)
chain: MFKIPGFGKAAANHTPPDMTNMDTRTRHLKVSNCPNNSYALANVAAVSPNDFPNNIYIIIDNLFVFTTRHSNDIPPGTIGFNGNQRTWGGWSLNQDVQAKAFDLFKYSGKQSYLGSIDIDISFRARGKAVSTVFDQDELAKQFVRCYESQIFSPTQYLIMEFQGHFFDLKIRNVQAIDLGDIEPTSAVATGIETKGILTKQTQINFFKGRDGLVNLKSSNSLRPRSNAVIRPDFKFEDLGVGGLDKEFTKIFRRAFASRIFPPSVIEKLGISHVKGLLLYGPPGTGKTLIARKIGTMLNAKEPKIVNGPEILSKYVGSSEENIRNLFKDAEAEYRAKGEESSLHIIIFDELDSVFKQRGSRGDGTGVGDNVVNQLLAKMDGVDQLNNILVIGMTNRKDLIDSALLRPGRFEVQVEIHLPDEKGRLQIFDIQTKKMRENNMMSDDVNLAELAALTKNFSGAEIEGLVKSASSFAINKTVNIGKGATKLNTKDIAKLKVTREDFLNALNDVTPAFGISEEDLKTCVEGGMMLYSERVNSILKNGARYVRQVRESDKSRLVSLLIHGPAGSGKTALAAEIALKSGFPFIRLISPNELSGMSESAKIAYIDNTFRDAYKSPLNILVIDSLETLVDWVPIGPRFSNNILQMLKVALKRKPPQDRRLLIMTTTSAYSVLQQMDILSCFDNEIAVPNMTNLDELNNVMIESNFLDDAGRVKVINELSRSCPNFNVGIKKTLTNIETARHDEDPVNELVELMTQSA
stoichiometry N: 6
